The record followed here is paper doi:10.1101/2025.11.21.689678 (bioRxiv, 2025).

This test has as its target MBP-MAGEA6 (human (cDNA from A549 cells), UniProt P43360 1-314). The test can be described thus: pull-down.

MBP-MAGEA6, sequence (P43360 whole entry): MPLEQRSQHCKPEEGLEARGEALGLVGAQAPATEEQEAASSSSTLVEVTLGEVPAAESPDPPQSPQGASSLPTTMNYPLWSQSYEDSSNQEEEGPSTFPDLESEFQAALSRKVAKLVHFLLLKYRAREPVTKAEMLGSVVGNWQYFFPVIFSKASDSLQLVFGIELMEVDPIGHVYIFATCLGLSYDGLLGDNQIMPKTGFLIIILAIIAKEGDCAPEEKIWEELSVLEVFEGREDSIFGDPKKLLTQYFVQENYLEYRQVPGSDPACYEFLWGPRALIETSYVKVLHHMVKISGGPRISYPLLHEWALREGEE

B1: His-Flag-ALKBH2 (natural protein, human, UniProt Q6NS38 1-261, looked up)
chain: MDRFLVKGAQGGLLRKQEEQEPTGEEPAVLGGDKESTRKRPRREAPGNGGHSAGPSWRHIRAEGLDCSYTVLFGKAEADEIFQELEKEVEYFTGALARVQVFGKWHSVPRKQATYGDAGLTYTFSGLTLSPKPWIPVLERIRDHVSGVTGQTFNFVLINRYKDGCDHIGEHRDDERELAPGSPIASVSFGACRDFVFRHKDSRGKSPSRRVAVVRLPLAHGSLLMMNHPTNTHWYHSLPVRKKVLAPRVNLTFRKILLTKK
For the molecule B1, the binding result is listed as “binds”.
